The record followed here is the DeepSol protein solubility set.

The data set can be described thus: soluble on expression in E. coli; label from the status in PepcDB or PDB records.
On to “MSLKPTVWHHLRLCPHGHPDETIDDAAIAVDETGTIVWLGAVSALPHGYAHWRREDLHGAWVTPGLVDCHTHLVYGGTRADEFAQRLAGVSYEEIARQGGGIVSTVRATRAADETTLFVQAAARLQPLLAEGVTAIEIKSGYGLDLASERKMLRVARQLGERFPVTVYTTFLGAHALPPEYAGRADAYIDEVCDRMLPALADEGLVDAVDVFCERIGFSLAQTERVFEAATRRGLPVKLHAEQLSNAGGTALAARYRALSADHLEFLDEAGIEAMKAAGTVAVLLPGAYYFIRETQLPPIELLRKHGVPIALATDHNPGTSPLESLLLTLNMGCTLFRMTVPEVLQGVTCHAAAALGRADRHGALEVGRQADFAAWSVGSLAELAYWIGRPLCEQVVRGGTTVFRRMNGEGHHHHHH”, for which the “soluble on expression in E. coli” value is reported as “soluble”.

In the case of “NSSGVNRVVGNNLDDLALPKLAKDQTNPMTMEELTTRFLRSDSATFDGTVVEVQGFASAAADGTWRLSRYKIYCCAADAMAYTATLETSTSMSSDQWYRVRGVVRVSSAHNPQFPMIEVHNLEAIDTPTEPYL”, the “soluble on expression in E. coli” value was “not soluble”.

Consider “PTLLTARLRWTDKVTLLADPPDKAMGQRSGPWMGEAITALLRAAEREVRLITPYFVPGNDGCDLLTELAQRGVRLSIMTNALSVTDMVLVHGAYRHYRLPLLKAGAELYEFGPPPRPCGRRDLLHTKVFLIDGRQAVVGSLNFDLRSAFMNTELGVLFEEPDLFAELEAMFDRQSAPDEAHRLSLEKGRLRWSVTEEGRAALARFEPDSPPALRAVSWVVGHLPIQ”, for which the “soluble on expression in E. coli” value is reported as “not soluble”. As to “MAHHHHHHMAALKNKIHRIGKRKGATLKDVSAWRWIKTAARHFKQEGKIFVPNCTEIMKSSHGRERAPQNPDWYYIRCAAVLRAIYLRPGVGYGGLSKRFGNKKNYGSRPEHTVTSSTGPLHWACKSLTKLGLVEPGAQSGQRLTRKGHKFADSLAFQVQIRKFGAST”, the “soluble on expression in E. coli” value is given as “soluble”. With “MAHHHHHHMGKLCWLQISIGGKPAKEKILLELFDDITPKTCANFRALCTGNEGKVTDETQIPMTYKGSTFHRIIAGFMIQGGDFTKHNGTGGVSIYGERFDDENFDVPCDKAGLLAMANAGPNTNGSQFFITVNPAQHLTGRHVVFGKVVRGMNTVRALEHTETGANDKPVKPCVIVDCGVTDTLPEPEPQVGGDTFPDYPEDCTPSLTDAELLDVGEEIRQIGNKLFKASDFENAIQKYEKAARFVKTINKTTANDVAVNEKLIACYNNTAACAIKLGQWSEARNAASRVLELDNSNAKALFRRGFASLSAGDSESAVADFTKAQKLDPDNTEIVTVLQQAKEAEKVRTAKLAAGLKKMFS” the entry was “not soluble”; with “MTRSRLKIDRHGKEEDAMDLIDTHQHLILRGKLGYAWTRGEPSLAGSFTRADYAALVEGSGVIGTIFMETGVDDGDYRAEARLVAGMVGEGTLPMFGQIASCRPETDQGFDAWLEECRHLKVVGFRRILQVMPDDTSRAENYRRNVRKIGKAGWPVDLCFHSRQLAIAAELVRACPDVRFMLDHCGTPDIAGNDFPAWSERMADLASLPNLFVKLSGVTAYCAPGQVTLESVRPYVETVLKLFGPARMVWGGDWPVVDLGSGLPEWIAMTREFLSTLSPDEQASIGHGNARRFYLATLEHHHHHH”, “not soluble”; with “MGYTVAVVGATGAVGAQMIKMLEESTLPIDKIRYLASARSAGKSLKFKDQDITIEETTETAFEGVDIALFSAGSSTSAKYAPYAVKAGVVVVDNTSYFRQNPDVPLVVPEVNAHALDAHNGIIACPNCSTIQMMVALEPVRQKWGLDRIIVSTYQAVSGAGMGAILETQRELREVLNDGVKPRDLHAEILPSGGDKKHYPIAFNALPQIDVFTDNDYTYEEMKMTKETKKIMEDDSIAVSATCVRIPVLSAHSESVYIETKEVAPIEEVKAAIAAFPGAVLEDDVAHQIYPQAINAVGSRDTFVGRIRKDLDAEKGIHMWVVSDNLLKGAAWNSVQIAETLHERGLVRPTAELKFELK”, “soluble”. With “MQPDNYFILAQKPITEPSASVMGQVKNDVKKEEPKNEEKKPGDENKNPAAVGAEGAGAAEKPQDKSQKPFPEIKMPTESMKKKKNTDNEIDKRKKMKTGFYQEKSDEDDTLEKIESLKVEQSDKTKKSQKKKLTLENGEKKV” the entry was “not soluble”. As for “MNVLFTSVPQEDVPFYQEALKDLSLKIYTTDVSKVPENELKKAELISVFVYDKLTEELLSKMPRLKLIHTRSVGFDHIDLDYCKKKGILVTHIPAYSPESVAEHTFAMILTLVKRLKRIEDRVKKLNFSQDSEILARELNRLTLGVIGTGRIGSRVAMYGLAFGMKVLCYDVVKREDLKEKGCVYTSLDELLKESDVISLHVPYTKETHHMINEERISLMKDGVYLINTARGKVVDTDALYRAYQRGKFSGLGLDVFEDEEILILKKYTEGKATDKNLKILELACKDNVIITPHIAYYTDKSLERIREETVKVVKAFVKGDLEQIKGNFVVGPS”, the entry is “soluble”; as for “MSLATWSAERFGFGAALGDHDRARRAAVGEAVERYCGNAVPDALEIACYDDLARAGRPALDPATLALYSDRQYRARGFPFRPFTRQTPVAWVPGRDLYAGGPVLVPASMAYLNYFRGAHADEVATHAMLYAGIATGENREHAERFALEELFERDANTIWWASGAAGWAVADAAELLDRYDIAHGEGTGRTIRLFQVPSQFPVPVLAAFLEEPGRGLIAYGTACRADPREAATKALVEAFAMLELTAELADGDSAHWRAVARGEIPPHTYLPYRADRRYADDIRPDFRDLVDLPAVAQLYLDPRMQGRPLDRLRDDTRTTRLADIPRADGDANGGTAHRRYLDMLATQGLSAVSVDVTTPDVRAAGLTVVRVIVPGLYGNPPAAFPFLGGERLYDVPAQLGLAAGKITEDALYPYPIPHEGHHHHHH”, “not soluble”; as for “MSLSTPAVQALSHLVRDVTMKSIVLSAFGTMPIVDERPLPVAGPQEILIRMTHASLNPIDRRIAEGFFKDRFEHRFPLTLGIDGAGVVESIGEQVSDFEVGDSVFGRFLHSYVGNGSFSEYVAISADATLLHTPLGVPPALAAALPTAATTALQAVESLGLPPGSVVLIMGATGGVGTFAVQLARAKGYQVLASASTEAAPWLAQLGVEHVFDRTQNVPERLSTGWPAGINGLIDLVNPAPAFAELVSCIAPGGTALSSIWSATADVAAARGVRAVNLEMLPNREDLRTLARQVLSGSLRVVIDKHISLEAVPAVMSQRQAGGARGKTVIDIAEGHHHHHH”, “soluble”. Consider “MIGVVIPAHNEEQLLADCLRCALKAASHPELNEDVAILVVLDSCSDGSLDIARQFAVQHLQLQVRNVGRARAAGAQLLLQAGARWLSCTDADSRVPEDWLVAQLALGADAVCGTVTVDRWSESFEPQARIRYHDAYQDSDGHRHIHGANLGISAAAYVRAGGFEALACHEDVQLVRQLQRCGASIAWSRHPQVITSGRLDSRAKGGFGDYLKGLNEPCAGLLEHHHHHH”, for which the “soluble on expression in E. coli” value is “not soluble”.

In the case of “GERRIPESRILRREVVEATSAVAAALQIPARAPVIEMTRVRLIDGAPMLAEEIWLPYDRFAAFSRLELDSIGDLLYPVYEAHCNQIVASATETLTVEAIGPAHARLLRIEPGTPAVVIERLAYGYDRRPLEWRRSRGPASEFIYQAEIR”, the “soluble on expression in E. coli” value was “not soluble”. As for “MSLGISNAIDNSVRARVLGIKTEFRNFNTGRTFFLPQHVALLGQGNTAATYELTPFRATSAAQVGQRFGFGSPLHLAALQLLPDNNDGLRSIPLTIFPMGDNDAGVAAEGVLDLSGTASATATVRVRIGSQRSSLVTIPTGTTAEQAAALLVAGIQGNPFMPMTAAVDGTNANEVDVTAKWQGLSGNDLVVSIEGSIPGITVAITQPTGGAADPEVADTLALFGENVWYTQIVSCFNTANTDALDAFETFGEGRWDPILRRPLAVFTGTNETDPNTLAAIGDARRAQRTNLVTPVPGAQNLPCEIAAAWVARVARSANNDPASDFARLTLPGLTPGTDAQQWTHTQRDLLVKAGISTSIVRDGVAEISDTVTTYHPTGEVNPGYLFYKDTVKASNVLFNLDLIFNTREWDGAPLIPDDQPTTNARAKRPKDAVAVLSVLANNLGLDAIISDVPFTLENIRASINDQNPNRLDIIFPAKNSGNANIISADYFFGFFLGTEGHHHHHH”, the entry is “soluble”; as for “MQRKGDTPATLDLFADQTPQPRRDEQIGPGSWLFSGFALPAMPTLLLALEQTLGHSPFRHMLTPGGLSMSAALSSCGPLGWITDRHGYRYSDVDPQTGQPWPAMPDAFMQLAQSAALAAGYRGFVPDACLINRYIPGAKMSLHQDKDEHDHRWPVVSVSLGIPAIFQFGGMQRSDKTRRISLFHGDVVVWGGEDRLRFHGILPIKQAEHPLLGEQRINLTFRKAGRDSLEHHHHHH”, “soluble”. Take “MQLALVLSELGEYQVSNQWLLKIIHDLDETMYDCLYFLANNYACLGLFREATQYAEQYLTCESDGEFADDAADLLELLKLDRHDVSEEQEQLITMQERARHLLEQERFAEAIEALEAIVSRYPEFWSAHNNLALAYFYNGDVERAKQKLLEVLKRDPGNLHALCNALVFAYYLHDQEEVAALCETLASVYPFFREHQYKLGATFALVGRFDSAFRWLYRLYKNGFDGDGPFYYWLAYSAYHIGHESLARQVWETLTTLHPEKRGELEHHHHHH”: the “soluble on expression in E. coli” value is on record as “not soluble”. For the sequence “MARLTVHTLETAPEAAKPRVEAVPKNNGFIPNLIGVLANAPEALAFYQEVGKLNAANSLTAGEVEVIRIIAVRTNQCSFCVAGHTKLATLKKLLSEQSLNAARALAAGKSDDAKLGALAAFTQAVMAKKGAVSDDELNAFLEAGYNRQQAVEVVMGVALATLCNYANNLAQTEINPKLQAYA”, the “soluble on expression in E. coli” value is given as “not soluble”.

On to “VAKATNAPLSVSKIDFKRGDDGSGRLILKFDGQGATPDLRTQGGTVLVDLGTAVLPTVLQRQINVVDFATPVQRIDAKPMGKGAQLVLSTKGAFESLAYQTGDEYVVEIVPRKGEAAM”, for which the “soluble on expression in E. coli” value was “not soluble”.

Regarding “MPHNSVKHSTRLDVIPLKTAEKHPNSQRRFHVMSKPGGSKCNLDCQYCFYLHKDELLHQPKQPMMDDTTLEAFIKSYIESQDGHEIVFSWQGGEPTLLGLDYFKKIVQLQNKYRPSGVKIENDLQTNGILLNDEWCQFLKDNGFLVGLSIDGPKELHDKYRVTRSGKPTFNLVMAAAKRLQEHHVPFNSLVVVNRHNAKHPLDVYRFLTKELGATYIQFTPCVEAKDFTTTAPQFWNETMIPNKGSELAKPGHPMSIVTDWSVDPDDWGNFLNTVFVEWVNNDLGRVLVNLFETAVAQVMGKESQLCVTAEFCGKGLAMEHNGDVFSCDHYVYPEYKLGNIHDRGLNEFAFSIRQHGFGMAKRDSLPSYCKSCPHLKLCWGECPKNRLINTPNGEPGLNYLCSGIRAFFDESLPMLTGLSVLLQRQENTQK”, the “soluble on expression in E. coli” value is listed as “not soluble”. Consider “MGSLGPKVFKLDQLPGTIGKKAAKGASVKFSESSTQAVIKATYLQVFGRDVYEGQRLKVQEIKLENGEISVRDFVRALAKSDLFRKLYWTPFYVCKAIEYIHRRLLGRPTYGRQENNKYFDIASKKGLYAVVDAILDSLEYTETFGEDTVPYERYLEHHHHHH”, for which the “soluble on expression in E. coli” value is “soluble”.

In the case of “AHHHHHHGSPIRKVMKANEAAAWAAKLAKPKVIAAFPITPSTLIPEKISEFVANGELDAEFIKVESEHSAISACVGAAAAGVRTFTATASQGLALMHEILFIAAGMRLPIVMAIGNRALSAPINIWNDWQDTISQRDTGWMQFYAENNQEALDLILIAYKVAEDERVLLPAMVGFDAFILTHTVEPVEIPDQEVVDEFLGEYEPKHAYIDPARPITQGSLAFPAHYMESRYTVWEAMERAKKVIDEAFAEFEKKFGRKYQKIEEYKTEDADIIFVTMGSLAGTLKEWIDKKREEGYKVGAAKITVYRPFPVEEIRELAKKAKVLAFLEKNITIGLYGAVFTDASAALINESEKPLMVDFIVGLGGRDVTFNQLDEALEIAEKALKEGKVENPINWIGLRWELVK”, the “soluble on expression in E. coli” value is reported as “soluble”.
